Measurements taken from patent US20030207791A1, “Materials and methods relating to the treatment of leukaemias” (priority 2000, published 2003).

Columns and labels:
GST-NCoR = target: T1, GST-NCoR (Mus musculus, UniProt Q60974); experiment: GST-NCoR pull-down assay with in vitro translated 35S labelled proteins; type: binding
T1 construct: made in house
T1 sequence (Q60974 1782-2453): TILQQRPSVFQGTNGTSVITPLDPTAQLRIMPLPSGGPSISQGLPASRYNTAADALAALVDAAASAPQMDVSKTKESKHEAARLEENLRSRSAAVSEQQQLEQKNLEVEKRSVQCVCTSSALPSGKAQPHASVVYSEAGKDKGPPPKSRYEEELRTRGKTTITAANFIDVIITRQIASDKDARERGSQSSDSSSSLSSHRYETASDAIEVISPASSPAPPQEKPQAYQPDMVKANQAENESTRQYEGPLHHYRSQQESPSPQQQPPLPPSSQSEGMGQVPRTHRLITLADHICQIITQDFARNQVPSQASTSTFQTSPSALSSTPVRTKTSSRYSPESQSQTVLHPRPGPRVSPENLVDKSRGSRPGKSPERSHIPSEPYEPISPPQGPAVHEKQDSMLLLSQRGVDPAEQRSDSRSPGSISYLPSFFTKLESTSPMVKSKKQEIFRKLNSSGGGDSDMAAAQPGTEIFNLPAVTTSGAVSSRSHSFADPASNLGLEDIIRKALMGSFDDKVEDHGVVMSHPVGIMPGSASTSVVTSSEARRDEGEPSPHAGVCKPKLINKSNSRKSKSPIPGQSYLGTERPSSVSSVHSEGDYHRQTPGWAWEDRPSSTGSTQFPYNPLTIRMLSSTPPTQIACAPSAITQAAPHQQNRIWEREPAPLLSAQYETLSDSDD
Experimental: FIG. 1. Enhanced recruitment of NCoR by PML-RAR is due to the coiled coil region of PML. Increasing amounts of GST -NCoR (from 150 ng to 10 μg) coupled to agarose beads were incubated with the indicated in vitro translated, ^35-S labelled proteins. On the left, a schematic representation of the in vitro translated products, with the tripartite motif of PML highlighted (R, RING finger; B, B boxes; CC, coiled coil). The input lanes are loaded with the same amounts used in the pull-down experiments.
Recruitment of the NCoR-HDAC complex is crucial for the transforming potential of PML-RAR. At low concentrations of RA (1-100 nM), the stability of the PML-RAR-NCoR complex is higher than that of the RAR-NCoR complex (Grignani et al., 1998; He et al., 1998; Lin et al., 1998). […] Pull-down assays were performed by incubation of in vitro translated, ^35S labelled PML-RAR or RAR with GST-NCoR coupled to agarose beads.
GST-NCoR (1782-2453) or GST-NCoR (RDIII) purification and in vitro interaction experiments were performed as described, incubating the indicated amounts of GST-NCoR attached to a constant amount of glutathione-agarose beads in the presence of the appropriate ^35-S labelled, in vitro translated proteins(Gelmetti et al., 1998; Grignani et al., 1998; Zamir et al., 1996). The input lanes represent 100% of the total. Coimmunoprecipitation experiments were performed as described(Gelmetti et al., 1998), using extracts from transiently transfected COS-1 cells, or in vitro translated products.

[1] = tested on: RARE-G5-TATA reporter (GAL4-VP16 driven transcription); experiment: Transcriptional repression of GAL4-VP16 activation, RARE-G5-TATA reporter, transfected HeLa cells; type: cell-based
Experimental: FIG. 2. Role of the coiled coil of PML in the altered transcriptional properties of PML-RAR (A): Transcriptional repression by RAR and fusion proteins. Hela cells were co-transfected with the RARE-G5-TATA reporter in the absence (C) or presence of increasing amounts (50, 100, 250, 1000 ng) of the indicated expression vectors and then harvested 48 hours after transfection. Levels of expression of RAR and fusion proteins after transfection are shown in (C). (B) RARE and NCoR dependent transcriptional repression by RAR and fusion proteins. Hela cells were co-transfected with the RARE-G5-TATA or the G5-TATA, reporters and 1 μg of control expression vector (C), RAR (R), PML-RAR (P/R) and their respective AHT derivatives, as indicated. (D) RA sensitivity of RAR and fusion proteins. Cells were co-transfected with 500 ng of the indicated expression vectors. 24 hours after transfection, RA was added at the following concentrations: 1, 10, 100 nM, 1, 10 μM, and cells were harvested after additional 24 hours.
To test this hypothesis, the inventors devised an artificial, reporter system to measure transcriptional repression by RAR and chimeric proteins. The RARE-G5-TATA reporter construct has five GAL4 response elements fused to a minimal promoter region: upstream of the GAL4 sites, a RA responsive element (RARE) allows binding of RAR (or fusion proteins). […] RAR over-expression led to decrease of GAL4-VP16 activation, with 30-40% repression observed with the maximal amount of co-transfected RAR expression vector (1 μg, FIG. 2A), while it exerted no effect on the GAL4-VP16-mediated activation of a cognate promoter lacking the RARE (FIG. 2B). A RAR construct carrying the AHT mutation, which abrogates NCoR binding (Horlein et al., 1995), was unable to prevent activation of the RARE-G5-TATA promoter by GAL4-VP16 (FIG. 2B).
Next, the inventors tested the transcriptional regulatory functions of PML-RAR (or derivatives). […] At the maximal concentration tested (1 μg), the inventors observed 80-90% repression with PML-RAR and 30-40% with RAR (FIG. 2A).
Transient transfection of HeLa, NIH 3T3, SAOS and C33A cells was performed by calcium phosphate as described (Lillie and Green, 1989; Minucci et al., 1994). p53-/- MEFs were transiently transfected by lipofection as described (Pearson et al., 2000). Light units were normalized to expression of a co-transfected β-galactosidase expression plasmid. Results are presented as the mean+standard deviations of at least three independent experiments.

[2] = tested on: U937 cells expressing PML-RAR under the control of an inducible promoter; experiment: Differentiation (CD14) of U937 cells with inducible PML-RAR treated with vitamin D and TGFβ; type: cell-based; details: for differentiated, CD14+ cells: cells expressing the coiled coil of PML, vitamin D and TGFβ
Source text: The cells were either uninduced (ctr column), or induced to express PML-RAR (PML-RAR column). Cells were transduced with retroviral vectors encoding the coiled coil of PML (RBCC) and GFP as a marker, or with retroviral vectors encoding GFP alone as a control (control). […] In cells expressing the coiled coil of PML (gated in the cytofluorimetric analysis based on the positivity for the GFP marker), PML-RAR was unable to block efficiently differentiation (from 90% to 70%). Levels of expression of PML-RAR were unchanged by expressing the coiled coil region of PML.
RAR oligomerization through the coiled coil region of PML is required for its leukemogenic activity, and deletion of the PML coiled coil is sufficient to lead to loss of oncogenic potential (Minucci et al., 2000). Small molecule compounds able to disrupt PML-RAR oligomers would therefore be able to revert the leukemic phenotype.

B1: CC-RAR: fusion of the coiled coil region of PML to RAR (protein)
chain: SELKCDISAEIQQRQEELDAMTQALQALQEQDSAEGAVHAQMHAAVGQLGRARAETEELIRERVRQVVAHVRAQERELLEAVDARYQRDYEEMASRLGRLDAVLQRIRTGSALVQRMKCYASDQEVLDMHGFLRQALCRLRMASNSSSCPTPGGGHLNGYPVPPYAFFFPPMLGGLSPPGALTTLQHQLPVSGYSTPSPATIETQSSSSEEIVPSPPSPPPLPRIYKPCFVCQDKSSGYHYGVSACEGCKGFFRRSIQKNMVYTCHRDKNCIINKVTRNRCQYCRLQKCFEVGMSKESVRNDRNKKKKEVPKPECSESYTLTPEVGELIEKVRKAHQETFPALCQLGKYTTNNSSEQRVSLDIDLWDKFSELSTKCIIKTVEFAKQLPGFTTLTIADQITLLKAACLDILILRICTRYTPEQDTMTFSDGLTLNRTQMHNAGFGPLTDLVFAFANQLLPLEMDDAETGLLSAICLICGDRQDLEQPDRVDMLQEPLLEALKVYVRKRRPSRPHMFPKMLMKITDLRSISAKGAERVITLKMEIPGSMPPLIQEMLENSEGLDTLSGQPGGGGRDGGGLAPPPGSCSPSLSPSSNRSSPATHSP
GST-NCoR; increasing amounts of GST-NCoR
  binding to GST-NCoR: same characteristics of binding as PML-RAR
[1]
  capacity to repress GAL4-VP16 driven transcription: as strongly as PML-RAR

B2: coiled coil of PML: coiled coil of PML including the additional amino-terminal region, expressed from retroviral vector (protein)
chain: MEPAPARSPRPQQDPARPQEPTMPPPETPSEGRQPSPSPSPTERAPASEEEFQFLRCQQCQAEAKCPKLLPCLHTLCSGCLEASGMQCPICQAPWPLGADTPALDNVFFESLQRRLSVYRQIVDAQAVCTRCKESADFWCFECEQLLCAKCFEAHQWFLKHEARPLAELRNQSVREFLDGTRKTNNIFCSNPNHRTPTLTSIYCRGCSKPLCCSCALLDSSHSELKCDISAEIQQRQEELDAMTQALQEQDSAFGAVHAQMHAAVGQLGRARAETEELIRERVRQVVAHVRAQERELLEAVDARYQRDYEEMASRLGRLDAVLQRIRTGSALVQRMKCYASDQEVLDMHGFLRQALCRLR
[2]; PML-RAR induced
  differentiated, CD14+ cells: 70%
[2]; uninduced cells
  toxicity: did not notice appreciable toxicity
[2]; uninduced
  differentiated, CD14+ cells: 90%

B3: RAR: retinoic acid receptor α, wild type (protein)
chain: MASNSSSCPTPGGGHLNGYPVPPYAFFFPPMLGGLSPPGALTTLQHQLPVSGYSTPSPATIETQSSSSEEIVPSPPSPPPLPRIYKPCFVCQDKSSGYHYGVSACEGCKGFFRRSIQKNMVYTCHRDKNCIINKVTRNRCQYCRLQKCFEVGMSKESVRNDRNKKKKEVPKPECSESYTLTPEVGELIEKVRKAHQETFPALCQLGKYTTNNSSEQRVSLDIDLWDKFSELSTKCIIKTVEFAKQLPGFTTLTIADQITLLKAACLDILILRICTRYTPEQDTMTFSDGLTLNRTQMHNAGFGPLTDLVFAFANQLLPLEMDDAETGLLSAICLICGDRQDLEQPDRVDMLQEPLLEALKVYVRKRRPSRPHMFPKMLMKITDLRSISAKGAERVITLKMEIPGSMPPLIQEMLENSEGLDTLSGQPGGGGRDGGGLAPPPGSCSPSLSPSSNRSSPATHSP
GST-NCoR; GST-NCoR 150 ng to 10 μg
  higher amounts of GST-NCoR required to obtain significant binding, compared with PML-RAR: 15-30 fold
[1]
  amount of expression vector necessary to measure significant transcriptional repression: at least 250 ng
[1]; maximal amount of expression vector, 1 μg
  repression of GAL4-VP16 activation: 30-40%
